B1: cytosolic tail (CT) of integrin αX (residues K1129-K1163) (domain or fragment, UniProt P20702 1129-1163, looked up)
chain: KVGFFKRQYKEMMEEANGQIAPENGTQTPSPPSEK
notes: integrin αX (CD11c) cytosolic tail, residues K1129-K1163, 35 residues; Used 15N-labelled in one direction of the titration and unlabelled in the other; A GGGGSDP linker lay between KSI and the tail, and formic acid cleaves at the Asp-Pro site, so a Pro may remain at the N-terminus (surmised); The myristoylated synthetic αX CT (GL Biochem) was used only for the structure in DPC micelles, not for …
B2: cytosolic tail (CT) of integrin β2 (residues K724-S769) (domain or fragment, UniProt P05107 724-769, looked up)
chain: KALIHLSDLREYRRFEKEKLKSQWNNDNPLFKSATTTVMNPKFAES
notes: integrin β2 (CD18) cytosolic tail, residues K724-S769; Used 15N-labelled in one direction of the titration and unlabelled in the other; also called β2 CT; CT of β2; source: E. coli BL21DE3, KSI fusion in inclusion bodies, purified (Ni-NTA in 8 M urea, cyanogen bromide cleavage, HPLC); not shown: ketosteroid isomerase (KSI), N-terminal, cleaved

Legend:
[1] = molecular target: B2; assay: NMR titration; 15N-1H HSQC; 15N-labelled CT titrated with the unlabelled cognate CT up to two times its concentration (1:2); 10 mM sodium phosphate buffer, pH 6.5, aqueous solution; done in both directions; details: both partners purified
[2] = molecular target: B1; assay: as above; details: both partners purified

binding result [1]	binding result [2]	Binder
binds	–	B1
–	binds	B2

From paper PMC3406025, “Structure and Binding Interface of the Cytosolic Tails of αXβ2 Integrin” (PLoS ONE, 2012)
